Values of other authors as cited in article doi:10.1101/2022.07.01.498456.

Columns and labels:
[1] = target: Glu35 (UniProt position 53, CAAKFESNFNT); experiment: other; conditions: native HEWL, ligand-free (inferred; not explicitly stated)
[2] = target: Asp52 (UniProt position 70, TDGSTDYGILQ); experiment: other; conditions: native HEWL, ligand-free (inferred; not explicitly stated)

Hen egg-white lysozyme (lysozyme C) (Gallus gallus)
pKa [1]: 6.2 | pKa [2]: 3.6
